# Test results: publication PMC11695720 (Nature Communications, 2025)
# B1: FD-5D antibody (antibody, V domains shown)
# VH: EVQLVESGGGLVQPGGSLRLSCAASGFTFSSYSMNWVRQAPGKGLEWVSYISSSSSTIYYADSVKGRFTISRDNAKNSLYLQMNSLRAEDTAVYYCASPGGITAAGTSVLFGYYGMDVWGQGTTVTVSS
# VL: not shown
# notes: source: ExpiCHO, transfected, purified (MabSelect SuRe); copies: 2 + 2
# B2: FI-3A antibody (antibody, V domains shown)
# VH: EVQLLESGGGLIQPGGSLRLSCAASGFTVSSNYMSWVRQAPGKGLEWVSVIYSGGSTYYADSVKGRFTISRDNSKNTLYLQMNSLRAEDTAVYYCARDHVRPGMNIWGQGTMVTVSS
# VL: not shown
# notes: as for B1
# B3: REGN10987 therapeutic antibody (antibody, V domains shown)
# VH: QVQLVESGGGVVQPGRSLRLSCAASGFTFSNYAMYWVRQAPGKGLEWVAVISYDGSNKYYADSVKGRFTISRDNSKNTLYLQMNSLRTEDTAVYYCASGSDYGDYLLVYWGQGTLVTVSS
# VL: QSALTQPASVSGSPGQSITISCTGTSSDVGGYNYVSWYQQHPGKAPKLMIYDVSKRPSGVSNRFSGSKSGNTASLTISGLQSEDEADYYCNSLTSISTWVFGGGTKLTVL
# notes: as for B1
# B4: EY6A antibody (antibody, V domains shown)
# VH: EVQLVESGGGVVQPGRSLRLSCAASAFTFSSYDMHWVRQAPGKGLEWVAVISYDGSNKYYADSVKGRFTISRDNSKNTLYLQMNSLRAEDTAVYYCAKDGGKLWVYYFDYWGQGTLVTVSS
# VL: not shown
# notes: as for B1
# B5: FD-11A IgG1 antibody (antibody, V domains shown)
# VH: EVQLVESGGGVVQPGRSLRLSCAASGFTFSSYGMHWVRQAPGKGLEWVAVIWYDGSNKYYADSVKGRFTISRDNSKNTLYLQMNSLRAEDTAVYYCAKGPDILTGYYNYYYYGMDVWGQGTMVTVSS
# VL: QSVLTQPPSVSGAPGQRVTISCTGSSSNIGAGYDVHWYQQLPGTAPKLLIYGNSNRPSGVPDRFSGSKSGTSASLAITGLQAEDEADYYCQSYDSSLSGFYVVFGGGTKLTVL
# notes: also called IgG1 FD-11A; source: ExpiCHO, transfected, purified (MabSelect SuRe); copies: 2 + 2
# Columns and labels:
# [1] = target: Biotinylated SARS-CoV-2 (Wuhan) RBD (SARS-CoV-2 (Wuhan), UniProt P0DTC2, biotin (EZ-Link Sulfo-NHS-LC-biotin per p-0040; Lys15 biotinylation site within the N-terminal AviTag per fig-0003 and p-0075)); experiment: SPR; conditions: both partners purified
# [2] = target: Soluble monovalent SARS-CoV-2 RBD (RBD-H) (SARS-CoV-2 (Wuhan, assumed), UniProt P0DTC2); experiment: SPR; conditions: both partners purified
Binder,binding result [1],binding result [2],Kd [1]
B1,binds,binds,
B2,binds,binds,
B3,binds,,
B4,binds,binds,
B5,,,1.23 µM
